This is an account of results in IntAct's records for PubMed 24316379.

B1: Interleukin-1 receptor-associated kinase 4 (Homo sapiens), Q9NWZ3 (parent)
chain: MNKPITPSTYVRCLNVGLIRKLSDFIDPQEGWKKLAVAIKKPSGDDRYNQFHIRRFEALLQTGKSPTSELLFDWGTTNCTVGDLVDLLIQNEFFAPASLLLPDAVPKTANTLPSKEAITVQQKQMPFCDKDRTLMTPVQNLEQSYMPPDSSSPENKSLEVSDTRFHSFSFYELKNVTNNFDERPISVGGNKMGEGGFGVVYKGYVNNTTVAVKKLAAMVDITTEELKQQFDQEIKVMAKCQHENLVELLGFSSDGDDLCLVYVYMPNGSLLDRLSCLDGTPPLSWHMRCKIAQGAANGINFLHENHHIHRDIKSANILLDEAFTAKISDFGLARASEKFAQTVMTSRIVGTTAYMAPEALRGEITPKSDIYSFGVVLLEIITGLPAVDEHREPQLLLDIKEEIEDEEKTIEDYIDKKMNDADSTSVEAMYSVASQCLHEKKNKRPDIKKVQQLLQEMTAS

In one assay the parent is B1. The following applies: with MYD88, Q99836-1.
Sequence of MYD88, Q99836-1 (Q99836 whole entry): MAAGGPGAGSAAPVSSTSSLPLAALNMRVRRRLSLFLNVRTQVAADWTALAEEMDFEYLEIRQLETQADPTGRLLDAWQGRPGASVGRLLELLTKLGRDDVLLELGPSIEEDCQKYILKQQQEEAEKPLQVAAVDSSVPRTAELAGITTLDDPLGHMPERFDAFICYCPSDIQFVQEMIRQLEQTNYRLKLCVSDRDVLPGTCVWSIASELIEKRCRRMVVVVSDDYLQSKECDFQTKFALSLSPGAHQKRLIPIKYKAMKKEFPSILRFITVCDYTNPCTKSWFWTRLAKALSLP
As to MNKPITPSTYVRCLNVGLIWKLSDFIDPQEGWKKLAVAIKKPSGDDRYNQFHIRRFEALLQTGKSPTSELLFDWGTTNCTVGDLVDLLIQNEFFAPASLLLPDAVPKTANTLPSKEAITVQQKQMPFCDKDRTLMTPVQNLEQSYMPPDSSSPENKSLEVSDTRFHSFSFYELKNVTNNFDERPISVGGNKMGEGGFGVVYKGYVNNTTVAVKKLAAMVDITTEELKQQFDQEIKVMAKCQHENLVELLGFSSDGDDLCLVYVYMPNGSLLDRLSCLDGTPPLSWHMRCKIAQGAANGINFLHENHHIHRDIKSANILLDEAFTAKISDFGLARASEKFAQTVMTSRIVGTTAYMAPEALRGEITPKSDIYSFGVVLLEIITGLPAVDEHREPQLLLDIKEEIEDEEKTIEDYIDKKMNDADSTSVEAMYSVASQCLHEKKNKRPDIKKVQQLLQEMTAS [R20W], the “effect of a mutation on the interaction” value is reported as “decreasing interaction strength”.

MNKPITPSTYVCCLNVGLIRKLSDFIDPQEGWKKLAVAIKKPSGDDRYNQFHIRRFEALLQTGKSPTSELLFDWGTTNCTVGDLVDLLIQNEFFAPASLLLPDAVPKTANTLPSKEAITVQQKQMPFCDKDRTLMTPVQNLEQSYMPPDSSSPENKSLEVSDTRFHSFSFYELKNVTNNFDERPISVGGNKMGEGGFGVVYKGYVNNTTVAVKKLAAMVDITTEELKQQFDQEIKVMAKCQHENLVELLGFSSDGDDLCLVYVYMPNGSLLDRLSCLDGTPPLSWHMRCKIAQGAANGINFLHENHHIHRDIKSANILLDEAFTAKISDFGLARASEKFAQTVMTSRIVGTTAYMAPEALRGEITPKSDIYSFGVVLLEIITGLPAVDEHREPQLLLDIKEEIEDEEKTIEDYIDKKMNDADSTSVEAMYSVASQCLHEKKNKRPDIKKVQQLLQEMTAS [R12C]: the “effect of a mutation on the interaction” value is on record as “decreasing interaction strength”.

Variants of B1 are the subject of the next assay. The following applies: with MYD88, Q99836-1. This is another data set of the same source.
Take MNKPITPSTYVCCLNVGLIRKLSDFIDPQEGWKKLAVAIKKPSGDDRYNQFHIRRFEALLQTGKSPTSELLFDWGTTNCTVGDLVDLLIQNEFFAPASLLLPDAVPKTANTLPSKEAITVQQKQMPFCDKDRTLMTPVQNLEQSYMPPDSSSPENKSLEVSDTRFHSFSFYELKNVTNNFDERPISVGGNKMGEGGFGVVYKGYVNNTTVAVKKLAAMVDITTEELKQQFDQEIKVMAKCQHENLVELLGFSSDGDDLCLVYVYMPNGSLLDRLSCLDGTPPLSWHMRCKIAQGAANGINFLHENHHIHRDIKSANILLDEAFTAKISDFGLARASEKFAQTVMTSRIVGTTAYMAPEALRGEITPKSDIYSFGVVLLEIITGLPAVDEHREPQLLLDIKEEIEDEEKTIEDYIDKKMNDADSTSVEAMYSVASQCLHEKKNKRPDIKKVQQLLQEMTAS [R12C]: the “effect of a mutation on the interaction” value was “disrupting interaction strength”.
